Source: patent EP4703390A1

Legend:
[1] = molecular target: EGFR and c-Met on the surface of tumor cells (human) (UniProt P00533); assay: flow cytometry, NCI-H1993 cells; hIgG1 negative control, EC50 could not be fitted
[2] = molecular target: EGFR and c-Met on the surface of tumor cells (human) (UniProt P00533); assay: cell-based or functional assay
[3] = molecular target: EGFR and c-Met on the surface of tumor cells (human) (UniProt P00533); assay: flow cytometry, NCI-H1975 cells; hIgG1 negative control, EC50 could not be fitted
[4] = molecular target: EGFR and c-Met on the surface of tumor cells (human) (UniProt P00533); assay: flow cytometry, A431 cells; hIgG1 negative control, EC50 could not be fitted

Top(MFI) [1]: 31200 MFI
endocytic activity Top(MFI), A431 cells (negative control) [2]: 118000 MFI
endocytic activity Top(MFI), NCI-H441 cells (negative control) [2]: 97500 MFI
endocytic activity Top(MFI), NCI-H1975 cells (negative control) [2]: 110000 MFI
Top(MFI) [3]: 38700 MFI
Top(MFI) [4]: 168000 MFI
Substance: hIgG1 (Biointron, Cat. No. B117901) (antibody)
